Laboratory results published in patent EP4722247A1 (Oricell Therapeutics Co., Ltd., dated 2026).
Like-named read-outs stand apart in the source and are kept apart here.

Assays:
[1] = biological target: T1, Human CD39-His protein (CD9-H52H4, ACRO Biosystems) (human, UniProt P49961 38-478); test: BLI (Fortebio), antibody on AHC probe, human CD39-His in solution
T1 construct: Purchased protein; also called human CD39-His antigen; human CD39 protein; not shown: His tag
T1 sequence (looked up): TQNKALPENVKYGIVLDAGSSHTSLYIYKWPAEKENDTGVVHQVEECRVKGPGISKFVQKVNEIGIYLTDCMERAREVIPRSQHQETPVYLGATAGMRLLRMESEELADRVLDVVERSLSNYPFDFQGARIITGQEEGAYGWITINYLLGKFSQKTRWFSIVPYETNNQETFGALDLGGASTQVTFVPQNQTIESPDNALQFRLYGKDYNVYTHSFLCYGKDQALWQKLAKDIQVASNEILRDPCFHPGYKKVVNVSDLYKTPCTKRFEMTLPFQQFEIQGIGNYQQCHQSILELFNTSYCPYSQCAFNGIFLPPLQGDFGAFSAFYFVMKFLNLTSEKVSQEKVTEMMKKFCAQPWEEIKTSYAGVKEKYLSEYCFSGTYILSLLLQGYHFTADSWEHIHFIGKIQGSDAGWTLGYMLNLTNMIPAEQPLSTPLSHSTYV

[2] = biological target: T1, Human CD39-His protein (CD9-H52H4, ACRO …); test: as above; remark: listed apart in the source

Kd [1]: 0.802 nM
koff [1]: 0.000168 s⁻¹
kon [1]: 210000 M⁻¹ s⁻¹
Kd [2]: 1.28 nM
koff [2]: 0.000408 s⁻¹
kon [2]: 320000 M⁻¹ s⁻¹
B1: control antibody H5L5 (Patent CN112714768A) (antibody, V domains shown)
VH: QVQLVQSGAEVKKPGASVKVSCKASGYNLKDTFLHWVRQAPGQGLEWMGRIDPANGNIKYDPKFQGRVTITADTSANTAYMELISLRSEDTAVYYCANSPYYYGSGYRIFDVWGQGTTVTVSS
VL: QIVLTQSPATLSLSPGERATLSCSAFSSVNYMHWYQQKPGQAPRLLIYTTSNLASGIPTRFSGSGSGTSYTLTISSLEPEDFAVYYCQQRSTYPFTFGQGTKLEIKR
notes: Anti-CD39 control antibody; also called H5L5 control antibody
